Assay: soluble on expression in E. coli; label from the status in PepcDB or PDB records

Row | Sequence | soluble on expression in E. coli
1 | MSLSITFFVTGDNHLGYYEKNLTLKDDCYKLFEQYLKEATQKEGSILLQCGDLFNDLRPNKSCVSKTANLIKKYCIGDADIPYTIKDEAELSYPLNITDPYINVKHPLFTIHGTNDEPSGYKLIAGSEILASCGLVNYISPKSFEEEKMLKPVIIVNEHTKIALYGLSVLYSSDLDEIVEDETFHIKKPNGNDWICILLLYIGKGTISQTTKDIIEKHFNIIILGGQHSCNIPTGDFNGSVIIQPGSPFFLSFDEYDEIKKGFVKIVVEGQKIYIEKKEYKPIHRMIKKEVYIPETLRDCVISKRIEDFIQQEMKKCITEAVIKENEQILLKLIVKDCNQDCYPDTKKISSLLEEDVVNFIDCIKVKKEGHHHHHH | not soluble
2 | MFEDLLQTKRLIKSYYYYPKLVLVINIAEYLYSKGRDVCIFNFDKIKWEYYPYNLNFHMKCNERSENIIFEAEDESEIPNNFSLVTSIKKLNLGIPQSEIQKLDQNLFKINIDNKIYLFRIIEGKIVEEKIKGLSEEIINILREYNELSLKEIVDILYHKTNSSRDNIRKEIYFLKDIGVIEIKNGKVLLNNNSWLKR | soluble
3 | AHHHHHHASAKWVCKICGYIYDEDAGDPDNGISPGTKFEELPDDWVCPICGAPKSEFEKLEDGSFLPYLSSPYPLYLINLMLMECPPDIYSFSTQNSNNQLKGLFMFKKKEYDRWMVEAKRTLASAYSDLREGYYEWASFKAQQAAELAVKAILRGLSFAPIGHSITKLLRELAENNIKGPKKILYFAMKLDRNYIALRYPDAYPEGPH | soluble
4 | MGSDKIHHHHHHMKSEDNGESWSDTYFLTHGEKWHSSACNVLFSNGNVYLAMEQRCRLNEVTGWDVAGLSPTLFRACVEDNLCLASSWSRSEKFIYKEVFDGAKLDFFGIPFYDCETNKPKEIATGINNAPLGWLEANVVKFVDKDHIWHTDLKEVFHLFLRAHTGGVNYAHLFKIEIQDDQSMIPSLEHTPSGQKISYIPFPGGHLKFFIIYDELTRFYWLVSNQATDSMRRVSSLSNIKRYGLPNNERHRLQLHFSRNCVDWCFAGMVACSTNELYSRNYPSAVIKGDDLHIVCRSADEHALNPQYNNMITHHIVSNFRQLIY | not soluble
5 | QVQLVESGGGLVQPGGSLRLSCAASGFTFNSYWINWVRQAPGKGLEWVSGIAYDSSNTLYADSVKGRFTISRDNSKNTLYLQMNSLRAEDTAVYYCARGLGAFHWDMQPDYWGQGTLVTVSSASTKGPSVFPLAPSSKSTSGGTAALGCLVKDYFPEPVTVSWNSGALTSGVHTFPAVLQSSGLYSLSSVVTVPSSSLGTQTYICNVNHKPSNTKVDKKVEPKSCDKTH | soluble
6 | MMSVPQAREARRIDLGEMGWGEVQVDFYNPLVKRREIVMILHHELKPTPMRIMLRQKLAEVLGVDIKRIYIRYIKTGYGAGLSKVRVHVYDSPERALSFEPKYIIERNGGVNPFEEAEG | soluble
7 | MGSDKIHHHHHHMTVRQIIQLAGTLDIPGLPQLDVTQDEISIANLTPLKLWAATAGWGASADDLGFEDRVTGNKIPLNGSATSSRLVNAFDGSQALSQGTAGAVLKDDSFSTAGSFTIAMNLCAINDELTCAPASSSVLPGSGQSYWFLASSAGKFRIGTTSLSTQFADYLGPLLSRTAWLRLILKYDRAVGTMTLYVNGVQQAKLTNDALKTLSLAPGLVMGGLVTTTATPTSPPCLMRSPMGFNSALSDSELALVDRYLSKTLY | not soluble
8 | MGSDKIHHHHHHMEVTRTDKAVTLTWNKEEVSEGTVVFVSSSPKLEANSEPVFKVTNDVDHYSYDTKDIPIYFFLETPNGYYAIVSERILPLESVFNFRDMGGYASKNGKHVKWGKLYRSSNLVNINENDAALLQKLHIKWICDLRSSSEVKAQPTPAIEGILNKHIPIGTAKNEETKLPVTNDTTIYEPLMGESYRVFVQSVEGFREIFTEVLEDAKAGLPFVFHCTAGKDRTGVLGALLLTLLDVPEKTIFDDYAITNRYQDDILQEMGGIVSLFSSGTEKIDLETFRPMAEARPEYLEIAFDEMKKQYGSVANYLEKGIGITATEKAAFQKEMLE | not soluble
9 | MPQTDKQVCIPPELPELLKQFTKDAIRTQPPDLIQWAAEYFGAMSRGEIPPVRERSEQIPLSNWAELTPELLKVLHSRVAGRLIIHADELAQMWKVLNLPTDLFNSVMNVGRFTEEIEWLKFLALACSSLGVTIAKTLKIVCEVLSSDHDGGPPRIPFSTFQFLYTYIAEVDGEISSSHVSRMLNYIEQEVIGPDGLIKVNDFTQNPRVRLE | not soluble
10 | SNAMKYTVYLFDFDYTLADSSRGIVTCFRSVLERHGYTGITDDMIKRTIGKTLEESFSILTGITDADQLESFRQEYSKEADIYMNANTILFPDTLPTLTHLKKQGIRIGIISTKYRFRILSFLRNHMPDDWFDIIIGGEDVTHHKPDPEGLLLAIDRLKACPEEVLYIGDSTVDAGTAAAAGVSFTGVTSGMTTAQEFQAYPYDRIISTLGQLISVPEDKSGCPL | soluble
11 | MGHHHHHHSHMYAFTLHPNAQHRRTRIGTSVDLSCLLCFRIGGFYALSPYPGLRLISLNMNFCSRENFWLLINSTDPAGQLQWLVGELQAAEDRGDKVRASSGNTVVLGDKQAPVELEHLWAQKFYFPGIPNKCSLGIQLMVTVESLHSVPLSLARAAWTPGCPDYHP | not soluble
12 | MAHHHHHHMLANYDYESDLRGRTDELGRAQHVDAYDKHPTFLESPYAGQEDLLRDAPQSYMDGPPPGYGGHDAYEHVDMNGGGYDLPLQPQAQTQAVDTRRLSKDRLARGGLNIFSWSTDAPTLNHPREVRERDCAELQRLRPVDSAAQRDKEVREKFEGNTQSRFLCFSESDSPGKRRGVRVFNPNNKNGNLNSGTGHENPIQNRFNEEPQPFKIRQQQPRPLPQQNLPPAGRATHSNRQESGGIPGFAGMGEGRQHNARRGRGSYRG | soluble
13 | MKTIYLHHPITTDEWTDVKKVMALGFFDGVHLGHQAVIKQAKQIAEEKGLQTAVLTFDPHPSVVLSNIRKQVKYLTPLEDKAEKMANLGVDIMYVVRFTTQFSELSPRAFVDNYLVALNVKHVVAGFDYSYGKKGEGKMTELENYANGRFEVTIVDKQTAASDKISSTNIRRAITEGELEEANQLLGYP | not soluble
14 | NNELSPVALRQMSCAAGTTQTACTDDNALAYYNNSKGGRFVLALLSDHQDLKWARFPKSDGTGTIYTELEPPCRFVTDTPKGPKVKYLYFIKGLNNLNRGMVLESLAATVRLQLEHHHHHH | soluble
15 | MDVSDSIDWSKMTLQKISVRIEGHATSVSLEQPFLDILKTIARKKGQSLAFIITDIDSKRPQQVNLSSSLRIYALQSVLIQRL | not soluble
16 | MSLAKLNVEVFADGADIEQMKAAYKNKEVDGFTTNPSLMAKAGVTDYKSFAEEAVKEIPDASISFEVFADDLETMEKEAEILKQYGDNVFVKIPVVNTKGESTIPLIKKLSADNVRLNVTAVYTIEQVKEITEAVTEGVPTYISVFAGRIADTGVDPLPLMKESVDVAHSKEGVKLLWASCRELFNVIQADEIGADIITCPADVVKKVNTNLGRDINELSVDTVKGFAKDIQSSGLSEGHHHHHH | soluble
17 | MKNNKVLVVVGPTAVGKTALGIDLAIKFNGEIISGDSQQVYQGLDIGTAKVTMAEQAQVPHHLIDVRKWTENFSVHDFVIEANQLIKEILDQGKVPIIVGGTGLYIQSLIEGYHLGGQENHEEMMKLREELSLLSDEELFAKVIKINPDISELNRRRAIRFLELQTFGSQDENLGSDYDFLLIGLNADRKVLYDRINQRVDQMMREGLLDEARTLYEQAPEVQAAKGIGYKEFFPYFSGDISLEEAVELVKRNSRRYAKRQLTWFKNRMSVEFEDVFSKNYPEPIFDKVTQFLNLEHHHHHH | not soluble
18 | MSRDIDYGNLMHTAMRGLIKTVLADVAQHGLPGAHHFFITFDTRYEGVQLADWLADRYPGEMTIVMQHWYENLDVGEDGFAITLNFGDSPEPLYIPYDAIRTFVDPSVEFGLRFESPDFDEDDEDDIEVEEEPDAPKPDAEVVSLDSFRKPLEHHHHHH | soluble
19 | MSREANPFKKMPTILMPDELMAKALRRGEKVANEMRQKELPWLLKARFVEEHKVRTIASVVADNLQKVIDKTPPVRKLPKFYQEMVEVLVGIDDFKKSMGAFKWASELVRKLGNEYARKIRKARTPQQAGKLRKEFVGRVKSILEQIHPEMAFVAVAREKLKDLPTFKDLPTVVIAGYPNVGKSTLLKKLTGADVEINSYPFTTKGINVGYIGEIQMVDTPGLLDRPLYERNDIELQAILALNYLANLILFIIDASEFCGYTIEEQINLLKEIKDLFKAPIVVAINKIDLVDEERVKEIEEKLKEVGIEEILKISADKDIGLDELKERLKKIAIKEFLKDKDAENKELECLEHHHHHH | soluble
20 | MIFRAKANKALDRAEDPRETLDYSYQKQLELLQKVRRGVADVATSRKRLELQLNQLQSQSGKLEDQGRKALALGREDLAREALSRRAALQQQVTDLETQHATLQGEEEKLTLAAQRLQAKVDAFRTKKETIKATYTAAQAQTRIGEAFSGISEEMGDVGLAIQRAEDKTAQLQARAGAIDELLASGALDDQSGMHKDDIQAELDRLSGGTDVELELQRMKAELAGGSTSDRQAIEGGQGQGEASSQSQQPQDTPRFDKQLEHHHHHH | not soluble
21 | MTEKHKTMGKFKVIVLAGTAGTGKSTIAGELIHEFKDIYPDLKFIEGDDLHPPANVEKMTRGIPLNDDDRWDWLKKVAVESTKAAASTKEHLSIVACSSLKKKYRDLIRHTCPESEFHFIFLYASKIEVLKRLKTRKGHFMKADMMESQFRDLELPDINDETDCDIVPLDFKTFYQIEKDVIQVVKSKVLNIE | not soluble
22 | MMYQVKGYFSSLKGSYYEIGKQQGEFVKQNPYLIPQFIHEENVISNNHWTESRNILNKHCPGINEEIEGFCEVLKIPSKNMMYYYQTLLKAGCSHCAVLPKKTDLEHTYVLRNYDLSPVIDDMRFCSTHVEGAYAHSGFSTQYFGRTEGINEHGLAVTFSACGQPVGNIAGLRKPMVSGLQCFAVIRLLLEKCKNVQEAKLLIEEIPIASNINLIIADPLNAAYIEIFDGHKSTITIDGEKQAFIVSTNHAVSSSIQKLNNRKLEQSTKRYHLLHEHLNRCEQVSIESLKKLVEEEYPAGLTVHNYEEWFGTLHSVLFDLHDRTMKICFGSPLLNDWYSLKVGGSMPFSEVNVNFKNKTYTDFWKEDKNELIPKRLEHHHHHH | soluble
23 | PLVCLADFKAHAQKQLSKTSWDFIEGEADDGITYSENIAAFKRIRLRPRYLRDMSKVDTRTTIQGQEISAPICISPTAFHSIAWPDGEKSTARAAQEANICYVISSYASYSLEDIVAAAPEGFRWFQLYMKSDWDFNKQMVQRAEALGFKALVITIDTPVLGNRRRDKRNQLNLEANILLKDLRALKEEKPTQSVPVSFPKASFCWNDLSLLQSITRLPIILKGILTKEDAELAMKHNVQGIVVSNHGGRQLDEVSASIDALREVVAAVKGKIEVYMDGGVRTGTDVLKALALGARCIFLGRPILWGLACKGEDGVKEVLDILTAELHRCMTLSGCQSVAEISPDLIQFSRL | soluble

— the DeepSol protein solubility set
